Fewer inactive variants are shown than the library holds.
Key:
biotinyl-Val-oxazolone = test: self-aminoacylation, catalytic enhancement (BVO) (fold over background); higher = more active; k-Seq, kA / k0A0; sequences stand for … in GGGAAUGGAUCCACAUCUACGAAUUC…UUCACUGCAGACUUGACGAAGCUG
How it was run: (§1)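 The uncatalyzed rate is the low-activity peak of a bimodal Gaussian fit, and catalytic enhancement is median kA divided by it. The kA values came from pseudo-first-order fits, with 1000 bootstraps, of per-sequence fraction reacted measured by streptavidin capture, triplicate qPCR and Illumina sequencing. Mutagenized RNA pools with a 21-nt variable region (0.43 μM) were reacted with each biotinyl-aminoacyl-oxazolone at 2–1250 μM in 50 μL HEPES/NaCl/KCl/MgCl2/CaCl2 buffer with 5% acetonitrile, pH 6.9–7.0, for 90 minutes at room temperature.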

biotinyl-Ile-oxazolone = test: self-aminoacylation, catalytic enhancement (BIO) (fold over background); higher = more active; k-Seq, kA / k0A0; sequences stand for … in GGGAAUGGAUCCACAUCUACGAAUUC…UUCACUGCAGACUUGACGAAGCUG
How it was run: as §1

biotinyl-Phe-oxazolone = test: self-aminoacylation, catalytic enhancement (BFO) (fold over background); higher = more active; k-Seq, kA / k0A0; sequences stand for … in GGGAAUGGAUCCACAUCUACGAAUUC…UUCACUGCAGACUUGACGAAGCUG
How it was run: as §1

biotinyl-Leu-oxazolone = test: self-aminoacylation, catalytic enhancement (BLO) (fold over background); higher = more active; k-Seq, kA / k0A0; sequences stand for … in GGGAAUGGAUCCACAUCUACGAAUUC…UUCACUGCAGACUUGACGAAGCUG
How it was run: as §1

biotinyl-Met-oxazolone = test: self-aminoacylation, catalytic enhancement (BMO) (fold over background); higher = more active; k-Seq, kA / k0A0; sequences stand for … in GGGAAUGGAUCCACAUCUACGAAUUC…UUCACUGCAGACUUGACGAAGCUG
How it was run: as §1

biotinyl-Trp-oxazolone = test: self-aminoacylation, catalytic enhancement (BWO) (fold over background); higher = more active; k-Seq, kA / k0A0; sequences stand for … in GGGAAUGGAUCCACAUCUACGAAUUC…UUCACUGCAGACUUGACGAAGCUG
How it was run: as §1

“CAGUUUGCUAAUAGUCUCAAG [Fam3.1 aminoacylation ribozyme variant]” showed a self-aminoacylation (biotinyl-Val-oxazolone) of 0.829, a self-aminoacylation (biotinyl-Ile-oxazolone) of 0.951 and a self-aminoacylation (biotinyl-Phe-oxazolone) of 1.71. For the same sequence, the self-aminoacylation (biotinyl-Leu-oxazolone) was 1.09, the self-aminoacylation (biotinyl-Met-oxazolone) was 0.711 and the self-aminoacylation (biotinyl-Trp-oxazolone) was 0.993.
Sequence “CAGUUUGCUAAUAGUGGCAAG [Fam3.1 aminoacylation ribozyme variant]” has a self-aminoacylation (biotinyl-Val-oxazolone) of 0.882, a self-aminoacylation (biotinyl-Ile-oxazolone) of 0.854 and a self-aminoacylation (biotinyl-Phe-oxazolone) of 0.616. For the same sequence, the self-aminoacylation (biotinyl-Leu-oxazolone) was 0.854, the self-aminoacylation (biotinyl-Met-oxazolone) was 1.04 and the self-aminoacylation (biotinyl-Trp-oxazolone) was 0.985.
With “CAGUUUGCUAAUCGUCGCAAG [Fam3.1 aminoacylation ribozyme variant]” the self-aminoacylation (biotinyl-Val-oxazolone) was 1.07, the self-aminoacylation (biotinyl-Ile-oxazolone) was 0.971 and the self-aminoacylation (biotinyl-Phe-oxazolone) was 0.994. It also gave a self-aminoacylation (biotinyl-Leu-oxazolone) of 1.32, a self-aminoacylation (biotinyl-Met-oxazolone) of 0.993 and a self-aminoacylation (biotinyl-Trp-oxazolone) of 1.05.
“CAUUUUGCUAAUAGUCGCAAG [Fam3.1 aminoacylation ribozyme variant]” was tested, and the self-aminoacylation (biotinyl-Val-oxazolone) was 1.04, the self-aminoacylation (biotinyl-Ile-oxazolone) was 1.3 and the self-aminoacylation (biotinyl-Phe-oxazolone) was 0.981. It also gave a self-aminoacylation (biotinyl-Leu-oxazolone) of 1.07, a self-aminoacylation (biotinyl-Met-oxazolone) of 1.01 and a self-aminoacylation (biotinyl-Trp-oxazolone) of 0.635.
For “CCAAACUUCAAGCAGUCGGUC [Fam1B.1 aminoacylation ribozyme variant]”, the self-aminoacylation (biotinyl-Val-oxazolone) was 1.18, the self-aminoacylation (biotinyl-Ile-oxazolone) was 1.29 and the self-aminoacylation (biotinyl-Phe-oxazolone) was 0.806. For the same sequence, the self-aminoacylation (biotinyl-Leu-oxazolone) was 1.1, the self-aminoacylation (biotinyl-Met-oxazolone) was 1.01 and the self-aminoacylation (biotinyl-Trp-oxazolone) was 0.793.
“CCAAACUUCAUGCAAUCGGUC [Fam1B.1 aminoacylation ribozyme variant]” showed a self-aminoacylation (biotinyl-Val-oxazolone) of 1, a self-aminoacylation (biotinyl-Ile-oxazolone) of 0.959 and a self-aminoacylation (biotinyl-Phe-oxazolone) of 0.558. It also gave a self-aminoacylation (biotinyl-Leu-oxazolone) of 0.864, a self-aminoacylation (biotinyl-Met-oxazolone) of 0.703 and a self-aminoacylation (biotinyl-Trp-oxazolone) of 0.611.
With “CCACAAUUCAAGCAAUCAGUC [Fam1B.1 aminoacylation ribozyme variant]” the self-aminoacylation (biotinyl-Val-oxazolone) was 0.876, the self-aminoacylation (biotinyl-Ile-oxazolone) was 0.933 and the self-aminoacylation (biotinyl-Phe-oxazolone) was 1.54. For the same sequence, the self-aminoacylation (biotinyl-Leu-oxazolone) was 0.763, the self-aminoacylation (biotinyl-Met-oxazolone) was 0.673 and the self-aminoacylation (biotinyl-Trp-oxazolone) was 0.762.
“CCACAAUUCAAGCAAUCGGUA [Fam1B.1 aminoacylation ribozyme variant]” showed a self-aminoacylation (biotinyl-Val-oxazolone) of 1.17, a self-aminoacylation (biotinyl-Ile-oxazolone) of 1.26 and a self-aminoacylation (biotinyl-Phe-oxazolone) of 1.33. For the same sequence, the self-aminoacylation (biotinyl-Leu-oxazolone) was 1.43, the self-aminoacylation (biotinyl-Met-oxazolone) was 1.19 and the self-aminoacylation (biotinyl-Trp-oxazolone) was 1.13.
In the case of “CCACAAUUCAAGCAAUCGGUG [Fam1B.1 aminoacylation ribozyme variant]”, the self-aminoacylation (biotinyl-Val-oxazolone) is reported as 5.99, the self-aminoacylation (biotinyl-Ile-oxazolone) is reported as 6.36 and the self-aminoacylation (biotinyl-Phe-oxazolone) is reported as 60.3. For the same sequence, the self-aminoacylation (biotinyl-Leu-oxazolone) was 12.3, the self-aminoacylation (biotinyl-Met-oxazolone) was 8.06 and the self-aminoacylation (biotinyl-Trp-oxazolone) was 8.78.
Sequence “CCACAAUUCAAGCAAUCGGUU [Fam1B.1 aminoacylation ribozyme variant]” has a self-aminoacylation (biotinyl-Val-oxazolone) of 1.65, a self-aminoacylation (biotinyl-Ile-oxazolone) of 1.68 and a self-aminoacylation (biotinyl-Phe-oxazolone) of 1.16. For the same sequence, the self-aminoacylation (biotinyl-Leu-oxazolone) was 1.39, the self-aminoacylation (biotinyl-Met-oxazolone) was 1.76 and the self-aminoacylation (biotinyl-Trp-oxazolone) was 1.55.
“CCACAAUUCAAGCGAUCGGUC [Fam1B.1 aminoacylation ribozyme variant]” gave a self-aminoacylation (biotinyl-Val-oxazolone) of 1.47, a self-aminoacylation (biotinyl-Ile-oxazolone) of 1.37 and a self-aminoacylation (biotinyl-Phe-oxazolone) of 1.53. It also gave a self-aminoacylation (biotinyl-Leu-oxazolone) of 1.56, a self-aminoacylation (biotinyl-Met-oxazolone) of 1.28 and a self-aminoacylation (biotinyl-Trp-oxazolone) of 1.12.
“CCACAAUUUAAGCAAUCGGUC [Fam1B.1 aminoacylation ribozyme variant]” gave a self-aminoacylation (biotinyl-Val-oxazolone) of 1.02, a self-aminoacylation (biotinyl-Ile-oxazolone) of 1.2 and a self-aminoacylation (biotinyl-Phe-oxazolone) of 1.12. It also gave a self-aminoacylation (biotinyl-Leu-oxazolone) of 0.824, a self-aminoacylation (biotinyl-Met-oxazolone) of 0.776 and a self-aminoacylation (biotinyl-Trp-oxazolone) of 0.864.
For “CCACACAUCAAGCAAUCGCUC [Fam1B.1 aminoacylation ribozyme variant]”, the self-aminoacylation (biotinyl-Val-oxazolone) was 1.68, the self-aminoacylation (biotinyl-Ile-oxazolone) was 1.43 and the self-aminoacylation (biotinyl-Phe-oxazolone) was 0.869. The self-aminoacylation (biotinyl-Leu-oxazolone) was 1.21, the self-aminoacylation (biotinyl-Met-oxazolone) was 1.04 and the self-aminoacylation (biotinyl-Trp-oxazolone) was 1.64.
For “CCACACAUCAAGCAUUCGGUC [Fam1B.1 aminoacylation ribozyme variant]”, the self-aminoacylation (biotinyl-Val-oxazolone) was 1.64, the self-aminoacylation (biotinyl-Ile-oxazolone) was 1.75 and the self-aminoacylation (biotinyl-Phe-oxazolone) was 1.02. It also gave a self-aminoacylation (biotinyl-Leu-oxazolone) of 1.48, a self-aminoacylation (biotinyl-Met-oxazolone) of 1.6 and a self-aminoacylation (biotinyl-Trp-oxazolone) of 1.19.
Sequence “CCACACAUCAAGCGAUCGGUC [Fam1B.1 aminoacylation ribozyme variant]” has a self-aminoacylation (biotinyl-Val-oxazolone) of 1.07, a self-aminoacylation (biotinyl-Ile-oxazolone) of 0.954 and a self-aminoacylation (biotinyl-Phe-oxazolone) of 0.766. The self-aminoacylation (biotinyl-Leu-oxazolone) was 0.969, the self-aminoacylation (biotinyl-Met-oxazolone) was 1.09 and the self-aminoacylation (biotinyl-Trp-oxazolone) was 1.38.
Sequence “CCACACCCCAAGCAAUCGGUC [Fam1B.1 aminoacylation ribozyme variant]” has a self-aminoacylation (biotinyl-Val-oxazolone) of 1.37, a self-aminoacylation (biotinyl-Ile-oxazolone) of 1.6 and a self-aminoacylation (biotinyl-Phe-oxazolone) of 1.04. For the same sequence, the self-aminoacylation (biotinyl-Leu-oxazolone) was 1.04, the self-aminoacylation (biotinyl-Met-oxazolone) was 0.627 and the self-aminoacylation (biotinyl-Trp-oxazolone) was 0.888.
“CCACACCUAAAGCAAUCGGUC [Fam1B.1 aminoacylation ribozyme variant]” showed a self-aminoacylation (biotinyl-Val-oxazolone) of 1.31, a self-aminoacylation (biotinyl-Ile-oxazolone) of 1 and a self-aminoacylation (biotinyl-Phe-oxazolone) of 1.09. It also gave a self-aminoacylation (biotinyl-Leu-oxazolone) of 1.02, a self-aminoacylation (biotinyl-Met-oxazolone) of 0.876 and a self-aminoacylation (biotinyl-Trp-oxazolone) of 1.01.
“CCACACCUCAAGCAAUCGGGC [Fam1B.1 aminoacylation ribozyme variant]” was tested, and the self-aminoacylation (biotinyl-Val-oxazolone) was 2.33, the self-aminoacylation (biotinyl-Ile-oxazolone) was 1.86 and the self-aminoacylation (biotinyl-Phe-oxazolone) was 1.92. The self-aminoacylation (biotinyl-Leu-oxazolone) was 1.71, the self-aminoacylation (biotinyl-Met-oxazolone) was 1.49 and the self-aminoacylation (biotinyl-Trp-oxazolone) was 2.11.
In the case of “CCACACCUCAAGCAAUCGGUG [Fam1B.1 aminoacylation ribozyme variant]”, the self-aminoacylation (biotinyl-Val-oxazolone) is reported as 3.17, the self-aminoacylation (biotinyl-Ile-oxazolone) is reported as 3.55 and the self-aminoacylation (biotinyl-Phe-oxazolone) is reported as 32.5. It also gave a self-aminoacylation (biotinyl-Leu-oxazolone) of 7.12, a self-aminoacylation (biotinyl-Met-oxazolone) of 5.05 and a self-aminoacylation (biotinyl-Trp-oxazolone) of 5.99.
Sequence “CCACACCUCACGCAAUCGGUC [Fam1B.1 aminoacylation ribozyme variant]” has a self-aminoacylation (biotinyl-Val-oxazolone) of 1.99, a self-aminoacylation (biotinyl-Ile-oxazolone) of 1.84 and a self-aminoacylation (biotinyl-Phe-oxazolone) of 1.34. For the same sequence, the self-aminoacylation (biotinyl-Leu-oxazolone) was 1.58, the self-aminoacylation (biotinyl-Met-oxazolone) was 1.27 and the self-aminoacylation (biotinyl-Trp-oxazolone) was 2.13.
Work on “CCACACCUCGAGCAAUCGGUC [Fam1B.1 aminoacylation ribozyme variant]” yielded a self-aminoacylation (biotinyl-Val-oxazolone) of 1.88, a self-aminoacylation (biotinyl-Ile-oxazolone) of 1.39 and a self-aminoacylation (biotinyl-Phe-oxazolone) of 0.967. The self-aminoacylation (biotinyl-Leu-oxazolone) was 1.11, the self-aminoacylation (biotinyl-Met-oxazolone) was 1.18 and the self-aminoacylation (biotinyl-Trp-oxazolone) was 1.95.
Sequence “CCACACGACAAGCAAUCGGUC [Fam1B.1 aminoacylation ribozyme variant]” has a self-aminoacylation (biotinyl-Val-oxazolone) of 1.37, a self-aminoacylation (biotinyl-Ile-oxazolone) of 0.924 and a self-aminoacylation (biotinyl-Phe-oxazolone) of 0.767. For the same sequence, the self-aminoacylation (biotinyl-Leu-oxazolone) was 0.697, the self-aminoacylation (biotinyl-Met-oxazolone) was 0.948 and the self-aminoacylation (biotinyl-Trp-oxazolone) was 0.908.
“CCACACGUCAAGCAAGCGGUC [Fam1B.1 aminoacylation ribozyme variant]” was tested, and the self-aminoacylation (biotinyl-Val-oxazolone) was 1.57, the self-aminoacylation (biotinyl-Ile-oxazolone) was 0.826 and the self-aminoacylation (biotinyl-Phe-oxazolone) was 0.494. For the same sequence, the self-aminoacylation (biotinyl-Leu-oxazolone) was 1.19, the self-aminoacylation (biotinyl-Met-oxazolone) was 1.24 and the self-aminoacylation (biotinyl-Trp-oxazolone) was 0.697.
Sequence “CCACACGUCAAGCAAUCGGUC [Fam1B.1 aminoacylation ribozyme variant]” has a self-aminoacylation (biotinyl-Val-oxazolone) of 1.65, a self-aminoacylation (biotinyl-Ile-oxazolone) of 1.11 and a self-aminoacylation (biotinyl-Phe-oxazolone) of 0.848. It also gave a self-aminoacylation (biotinyl-Leu-oxazolone) of 1.17, a self-aminoacylation (biotinyl-Met-oxazolone) of 1.16 and a self-aminoacylation (biotinyl-Trp-oxazolone) of 1.16.
In the case of “CCACACGUCAAGCAAUGGGUC [Fam1B.1 aminoacylation ribozyme variant]”, the self-aminoacylation (biotinyl-Val-oxazolone) is reported as 1.49, the self-aminoacylation (biotinyl-Ile-oxazolone) is reported as 1.14 and the self-aminoacylation (biotinyl-Phe-oxazolone) is reported as 0.534. For the same sequence, the self-aminoacylation (biotinyl-Leu-oxazolone) was 1.36, the self-aminoacylation (biotinyl-Met-oxazolone) was 1.36 and the self-aminoacylation (biotinyl-Trp-oxazolone) was 1.02.
In the case of “CCACACGUCAAGCAGUCGGUC [Fam1B.1 aminoacylation ribozyme variant]”, the self-aminoacylation (biotinyl-Val-oxazolone) is reported as 1.69, the self-aminoacylation (biotinyl-Ile-oxazolone) is reported as 0.995 and the self-aminoacylation (biotinyl-Phe-oxazolone) is reported as 0.584. For the same sequence, the self-aminoacylation (biotinyl-Leu-oxazolone) was 1.26, the self-aminoacylation (biotinyl-Met-oxazolone) was 1.05 and the self-aminoacylation (biotinyl-Trp-oxazolone) was 1.17.
